Biological target: the molecule itself
Assay: SEC; gel filtration chromatography of purified His-RecN; single peak at a position indicating 308 kDa; column and buffer not told in the methods shown

B1: N-terminally hexahistidine-fused RecN (His-RecN), Escherichia coli (natural protein, E. coli, UniProt P05824 1-553, looked up)
chain: MLAQLTISNFAIVRELEIDFHSGMTVITGETGAGKSIAIDALGLCLGGRAEADMVRTGAARADLCARFSLKDTPAALRWLEENQLEDGHECLLRRVISSDGRSRGFINGTAVPLSQLRELGQLLIQIHGQHAHQLLTKPEHQKFLLDGYANETSLLQEMTARYQLWHQSCRDLAHHQQLSQERAARAELLQYQLKELNEFNPQPGEFEQIDEEYKRLANSGQLLTTSQNALALMADGEDANLQSQLYTAKQLVSELIGMDSKLSGVLDMLEEATIQIAEASDELRHYCDRLDLDPNRLFELEQRISKQISLARKHHVSPEALPQYYQSLLEEQQQLDDQADSQETLALAVTKHHQQALEIARALHQQRQQYAEELAQLITDSMHALSMPHGQFTIDVKFDEHHLGADGADRIEFRVTTNPGQPMQPIAKVASGGELSRIALAIQVITARKMETPALIFDEVDVGISGPTAAVVGKLLRQLGESTQVMCVTHLPQVAGCGHQHYFVSKETDGAMTETHMQSLNKKARLQELARLLGGSEVTRNTLANAKELLAA
notes: RecN, Escherichia coli; a fragment containing the recN gene from the pRecN plasmid cloned into pET15b; Copies: by gel filtration 'a homo-oligomeric complex, most likely a tetramer' (308 kDa); the discussion speaks of multimers larger than tetramers. pET15b may add linker residues between the His tag and RecN (surmised); also called E. coli RecN; source: E. coli BL21 (DE3), pET15b derivative, …
stoichiometry N: ~4

Reference: paper PMC6856136, “Topological DNA-binding of structural maintenance of chromosomes-like RecN promotes DNA double-strand break repair in Escherichia coli” (Communications Biology, 2019)
